Fewer inactive variants are shown than the library holds. Bounds are passed on as bounds.

The labels stand for the following.
B1: TPR 5TU (parent)
chain: GGAUCUUCUCGAUCUAACAAAAAAGACAAAUCUGCCACAAAGCUUGAGAGCAUCUUCGGAUGCAGAGGCGGCAGCCUUCGGUGGCGCGAUAGCGCCAACGUUCUCAACUAUGACACGCAAAACGCGUGCUCCGUUGAAUGGAGUUUAUCAUG

Variants of B1 are the subject of the data set. Kind of data set: polymerase ribozyme fitness, log enrichment relative to wild type (log ratio); higher = more active; in vitro selection for triplet polymerase activity. Summed up: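 Fitness compares each genotype's enrichment to that of the wild type on a logarithmic scale, averaging replicates with inverse-variance weights. The logarithm is base 2. Enrichment came from Illumina sequencing of input and output libraries after one triplicate round of in vitro selection, which included frozen incubation at −7 °C, of PCR-built, transcribed mutant libraries of each subunit of a heterodimeric triplet polymerase ribozyme. Only genotypes with ≥10 input reads and ≥1 read per output were kept.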
On to A16U C43U C87U U104G A107G C118A, for which the “polymerase ribozyme fitness (log ratio)” value was at most -4.2. As for C14G U82A U101G, the figure is -2.29; as for A16C C57A G94A C116U G124A A142U, -3.92. For A16U C87U the value was -2.65; for C14G C38U C95G A106C, -4.14.

With C14U A21G A24C A28U U53C C75U, the “polymerase ribozyme fitness (log ratio)” value is at most -4.2. For U15G A73C G84U C96A C103G A110G A137C, the “polymerase ribozyme fitness (log ratio)” value was at most -4.2. As to A16G U33G C95G, the “polymerase ribozyme fitness (log ratio)” value is at most -4.2. As to C14U U56A G74A C85A C87A C125U G143C A150U G152U, the “polymerase ribozyme fitness (log ratio)” value is at most -4.2.

As to U15G C38U U55A U56A C57G C85U A147C, the “polymerase ribozyme fitness (log ratio)” value is -2.05. On to C14G G42U G46C G92C A119U G128A, for which the “polymerase ribozyme fitness (log ratio)” value is at most -4.2. As for C14G C57A, the figure is -1.52; as for C14G C57U, -2.06; as for C14U G141U, 0.0902. Turning to C14G U56A A73G U135C, the “polymerase ribozyme fitness (log ratio)” value was -4.12. Regarding U15G C36G U111G G124A G141C A150U, the “polymerase ribozyme fitness (log ratio)” value was at most -4.2.

Regarding U15G C35U A41C A115G U145G, the “polymerase ribozyme fitness (log ratio)” value was -4.04. C14G C72U: the “polymerase ribozyme fitness (log ratio)” value was -3.04.

In the case of C14U G50C A98U C108A, the “polymerase ribozyme fitness (log ratio)” value was at most -4.2.

As for A16G A23U A29G A37U C43U C79G C99A A122G, the “polymerase ribozyme fitness (log ratio)” value is at most -4.2.

U15G G25C C51A C96G C149G: the “polymerase ribozyme fitness (log ratio)” value is at most -4.2. Consider U15G A16C A21U A26C C103U, for which the “polymerase ribozyme fitness (log ratio)” value is -3.98. A16C C35U G80A G94A C118U: the “polymerase ribozyme fitness (log ratio)” value was -3.33. As for A16G C27G C54G G83A G86U A97U C105U U146A, the figure is at most -4.2; as for A16G C27A G58C C85A C96G C116U G143C U148A, at most -4.2; as for C14G G83C G117U, -2.76.

On to U15A U55A G59A, for which the “polymerase ribozyme fitness (log ratio)” value worked out at 0.845.

On to A16G U56A, for which the “polymerase ribozyme fitness (log ratio)” value was -1.7. Turning to C14G C36A A52G A66C C93U C125A, the “polymerase ribozyme fitness (log ratio)” value was at most -4.2.

Turning to A16U A37U A52C G112U U139A, the “polymerase ribozyme fitness (log ratio)” value is at most -4.2. With C14U U15A C93U U101A, the “polymerase ribozyme fitness (log ratio)” value was -2.56.

Regarding C14U A21C C27U C36A G62U G80C G86A A137C, the “polymerase ribozyme fitness (log ratio)” value was -3.96.

With C14U A40C C54U C63A C95U A106C, the “polymerase ribozyme fitness (log ratio)” value is at most -4.2. For C14G G83A G117U U127G the value was at most -4.2. As to U15C C27U U53A A122G, the “polymerase ribozyme fitness (log ratio)” value was -1.39. Take A16G A40G G86C: the “polymerase ribozyme fitness (log ratio)” value is at most -4.2. Consider U15C A21G A24U U53A, for which the “polymerase ribozyme fitness (log ratio)” value amounted to 0.983. In the case of C14U A28U A52C G88U A91G C96U U134G G140U, the “polymerase ribozyme fitness (log ratio)” value is at most -4.2. As for C14U U31A G48C G67C A91U, the “polymerase ribozyme fitness (log ratio)” value was at most -4.2.

U15G C27A: the “polymerase ribozyme fitness (log ratio)” value is -4.13. For C14G C36U U55G G68U C93G U134A, the “polymerase ribozyme fitness (log ratio)” value is at most -4.2. For A16U C54A U101G A119U C149U the value was -4.08; for C14G G88U G140A, at most -4.2. As for A16G A17U A52C A91U C93U U111G C123U G124U G133A, the “polymerase ribozyme fitness (log ratio)” value is at most -4.2. A16C A21U C69U G71A: the “polymerase ribozyme fitness (log ratio)” value was -1.79. For the variant C14U C57A, the “polymerase ribozyme fitness (log ratio)” value is -0.738. On to C14G G48C U146A, for which the “polymerase ribozyme fitness (log ratio)” value is -4.06. Regarding C14G G58A, the “polymerase ribozyme fitness (log ratio)” value is -2.24.

As for A16C C27G U53A C54A G74A G94A, the “polymerase ribozyme fitness (log ratio)” value was at most -4.2. With U15C A17G C35G U56A G117C, the “polymerase ribozyme fitness (log ratio)” value was -4.19. In the case of U15A G50A U109G A110G, the “polymerase ribozyme fitness (log ratio)” value was at most -4.2.

Turning to C14U C85A U134G A142G A150U, the “polymerase ribozyme fitness (log ratio)” value was at most -4.2.

Take C14U A23C U101C U102A U151G: the “polymerase ribozyme fitness (log ratio)” value was at most -4.2.

Consider C14G G83A, for which the “polymerase ribozyme fitness (log ratio)” value is -2.42. For A16C C95U the value was -0.661; for A16G G46U U55A C85A C105A, -4.14; for C14U A30U U53G G58U G65C G74A, at most -4.2. Regarding A16G A40C A119C U127C, the “polymerase ribozyme fitness (log ratio)” value was -3.55.

Take C14G U15G A24G G58C C87G C108A C114U G136A: the “polymerase ribozyme fitness (log ratio)” value is at most -4.2. For the variant U15G C27G C76U C87G, the “polymerase ribozyme fitness (log ratio)” value is at most -4.2.

For A16G A29G A47U C57U A73C C93G A98G A115G, the “polymerase ribozyme fitness (log ratio)” value is at most -4.2. For C14U U15G A41C A49C C54G C75G C96U C123A A137U G141A G143C the value was at most -4.2.

On to A16G A28U C87A A107C, for which the “polymerase ribozyme fitness (log ratio)” value is at most -4.2. On to U15A A17U C57G G88U A91C U111C C129A U134G U148C, for which the “polymerase ribozyme fitness (log ratio)” value was at most -4.2. On to A16C C96A U109C U148A, for which the “polymerase ribozyme fitness (log ratio)” value is at most -4.2. As to A16U A26C G84A, the “polymerase ribozyme fitness (log ratio)” value was -3.52. On to A16U C87U C116U, for which the “polymerase ribozyme fitness (log ratio)” value is -2.25. As for A16C U82A C95G G141A, the “polymerase ribozyme fitness (log ratio)” value is -3.41.

Regarding A16C C72U U82A C85U A91U, the “polymerase ribozyme fitness (log ratio)” value is at most -4.2. As for A16U A49C G50A C54G C96A U101C U135G, the “polymerase ribozyme fitness (log ratio)” value was at most -4.2. In the case of C14G C54G G68C C85U C105A C114A A137U, the “polymerase ribozyme fitness (log ratio)” value was at most -4.2.

Take A16G C18A A26G C38U G42C G81A C87A C116A: the “polymerase ribozyme fitness (log ratio)” value was at most -4.2. As for A16U A37U C79A C99U U139A A142U, the figure is at most -4.2; as for U15G C95U U104G U144A, -0.599; as for A16G A22U A91U C93U U102G G128U, at most -4.2. Turning to A16G A49U G62A G92A C96A, the “polymerase ribozyme fitness (log ratio)” value was at most -4.2. A16U A21G C32U G50C U151G: the “polymerase ribozyme fitness (log ratio)” value was at most -4.2. As to A16U A47C U53A C85G C131A U134A G140U, the “polymerase ribozyme fitness (log ratio)” value was at most -4.2. With U15A A20U, the “polymerase ribozyme fitness (log ratio)” value was -0.122. For the variant A16U A22C C51U U55A G74A C99G C114A C131U, the “polymerase ribozyme fitness (log ratio)” value is at most -4.2. U15A C18G C27U U55A G86A C96G U104A A150G: the “polymerase ribozyme fitness (log ratio)” value is at most -4.2. A16G U33G U55A C95U: the “polymerase ribozyme fitness (log ratio)” value is -3.89. As to C14G C75U, the “polymerase ribozyme fitness (log ratio)” value is -2.58. For C14G G48A A119G the value was -3.43.
